Source: patent US5912183A, “Peptide inhibitors of mitogenesis and motogenesis” (Pharmacia & Upjohn S.p.A., priority 1993, dated 1999)
Residues, ends and D or L forms follow the SMILES beside them.

What was measured:
[1] = target: T1, binding of p85 to HGF/SF receptor (Bos taurus, UniProt P23727); assay: Competition of phosphopeptides with p85 for association with immobilized recombinant HGF/SF receptor (in vitro kinase assay readout); design: species or system human; conditions: phosphopeptide 10 μM; p85 from Sf9 lysates; FIG. 1
T1 construct: made in house; host or cells: Sf9 insect cells (baculovirus), for both p85 and the receptor
Experimental: FIG. 1. Inhibition of binding of p85 to HGF/SF receptor by tyrosine-phosphorylated peptides. Recombinant HGF/SF receptor was purified by immunoprecipitation from baculovirus-infected Sf9 cells using a rabbit polyclonal antiserum and phosphorylated with cold ATP. Lysates of Sf9 cells expressing p85 were pre-incubated with each of the phosphopeptides (10 μM). The lysates were then allowed to associate with immobilized recombinant HGF/SF receptors. Following association the complex was washed and receptor-bound p85 was detected by an in vitro kinase assay, as described in Materials and Methods of Example 4. The phosphopeptides are identified by the number of the amino terminal tyrosine.
FIG. 2. Inhibition of binding of p85 to HGF/SF receptor with different concentrations of tyrosine-phosphorylated peptides. The phosphopeptides which efficiently out-competed p85 binding to the HGF/SF receptor (FIG. 1) were used at increasing concentrations (10 nM, 100 nM, 1 μM from left to right) to define their relative affinities for p85. Conditions of the experiment were as in FIG. 1. Phosphopeptide 1365 was used as a negative control for p85 interaction.
In vitro association experiments. Sf9 cells expressing the recombinant HGF/SF receptor (approximately 4×10^6 cells/point) were lysed 36 hours after infection in buffer A (10 mM Tris-HCl buffer pH 7.5, 10% glycerol, 1% Triton X-100, 150 mM NaCl, 5 mM EDTA), supplemented with 0.2 mM phenyl-methylsulfonyl fluoride, 1 μg/ml leupeptin, 0.1 TIU/ml aprotinin and 1 μg/ml pepstatin. Lysates were clarified at 15,000×g at 4° C. for 15 minutes and the supernatants immunoprecipitated after 2 hours incubation with anti-Met antibodies coupled to Protein A-Sepharose. Immunocomplexes were washed three times with buffer A, once with buffer B (10 mM Tris-HCl pH 7.4, 100 mM NaCl, 1 mM EDTA) and once with buffer C (25 mM 4-(2-hydroxyethyl)-1-piperazine-ethanesulfonic acid (HEPES) buffer pH 7.2, 100 mM NaCl, 5 mM MgCl2). Samples were pre-phosphorylated by incubation for 15 minutes at 25° C. in buffer C with 10 μM unlabelled ATP and then washed three times with cold buffer A supplemented with 1 mM sodium ortho-vanadate. Association between the immobilized receptor and the baculovirus-expressed p85 was carried out as previously described (Bardelli, A., et al., Oncogene 7: 1973-1978 (1992)). For the association experiments with the PI 3-kinase holoenzyme three days serum-starved A549 cells (approx. 2×10^6 cells/point) were used as a source of PI 3-kinase. A549 cells were Dounce-homogenized in MOPS buffer (20 mM 3-(N-morpholino)propanesulfonic acid) (pH 7.5), 1 mM MgCl2, 0.1 mM EDTA, 200 mM sucrose, 1 mM sodium ortho-vanadate), supplemented with 0.2 mM phenylmethylsulfonyl fluoride, 1 μg/ml leupeptin, 0.1 TIU/ml aprotinin and 1 μg/ml pepstatin. Homogenates were centrifuged at 100,000×g for 20 minutes at 4° C. When checking for the ability of phosphopeptides to block the association with the receptor, cell lysates were pre-incubated with the phosphopeptides for 1 hour at 4° C. prior to incubation with the immobilized recombinant HGF/SF receptor. Following association, immunocomplexes were washed three times with buffer A, twice with buffer D (0.5M LiCl, 100 mM Tris-HCl pH 7.6), and twice with buffer B.
The presence of the p85 subunit of the PI 3-kinase in the receptor immunoprecipitate was determined by: i) labelling of the receptor and associated proteins with [γ-^32 P]ATP by in vitro kinase assay; ii) Western immunoblotting; iii) PI 3-kinase activity assay.
In vitro kinase assay. Receptor-associated proteins were labelled in 20 μl of buffer C, in the presence of 10 μCi [γ-^32 P]ATP (specific activity 7,000 Ci/Mm; Amersham) at 25° C. for 15 minutes. The reaction was stopped by adding 1 ml of ice-cold Buffer A without protease inhibitors. Samples were washed three times with cold buffer A. The labelled immunocomplexes were eluted from Protein A-Sepharose in boiling Laemmli buffer. […]

GST-SH2 domain of Shc = target: T2, GST-SH2 domain of Shc (Homo sapiens, UniProt P29353); assay: BIAcore binding of Shc SH2 domain to immobilised phosphopeptides; conditions: biosensor; for Affinity constant, ratio between dissociation rate (Kdiss) and association rate constants (Kass): Shc GST-SH2; for Binding of Shc SH2 domain to immobilised phosphopeptide: avidin-immobilized biotinylated phosphopeptide
T2 construct: using the Shc SH2 domain, expressed in bacteria as a GST-fusion protein; made in house; host or cells: bacteria
T2 sequence (P29353 488-579 limits assumed): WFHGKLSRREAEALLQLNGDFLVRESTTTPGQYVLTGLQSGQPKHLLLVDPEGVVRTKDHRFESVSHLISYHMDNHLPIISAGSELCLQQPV
Experimental: FIG. 13. […] The same concentration of Shc-SH2 was injected over two biosensor surfaces on which two phosphopeptides had been immobilised. Y1356P is derived from the sequence VNATY^1356 VNVK (SEQ. ID NO: 28) of the receptor tail; Y317P is derived from the sequence DDPSY^317 VNVQ (SEQ. ID NO: 27). Note that both peptides contain the same core (YVNV) but (SEQ. ID NO: 3) different upstream sequences. The initial rapid increase in the response is due to the "bulk effect" of the injected solution.
In vitro binding studies using GST-fusion protein. The region of the Grb2 cDNA corresponding to its SH2 domain (from nucleotide position 256 to nucleotide position 551) was isolated using polymerase chain reaction (PCR) and cloned into the BamHI-EcoRI sites of the bacterial expression plasmid pGEX-2T (GST-Grb2). Cultures of bacteria expressing GST, GST-Grb2 or GST-Shc (Segatto et al., Oncogene 2105-2112 (1993)) were grown for 3-4 hours at 37° C. in LB medium containing 1 mM IPTG. Bacteria were centrifuged, resuspended in 1/100 volume of ice-cold PY buffer, without Triton™ and lysed by sonication. After adding Triton X-100 to 1%, lysates were clarified by centrifugation. Recombinant proteins were purified onto glutathione Sepharose™ (Pharmacia) and used as such for binding assays. For each reaction, about 5 μg of GST, GST-Grb2 or GST-Shc bound to glutathione Seharose was incubated for 2 hrs. at 4° C. with […] of appropriate cell lysate made in PY buffer. Protein complexes were washed 5 times in ice cold PY buffer, eluted and denatured by heating at 95° C. for 3 min in Laemmli buffer, resolved on SDS-PAGE and analyzed by immunoblot.
The basic principles of operation as well as the methodology for obtaining kinetic measurements of SH2 domain interactions using the BIAcore instrument (Pharmacia) have been previously described in detail (Panayotou et al., Mol. Cell. Biol. 13: 3567-3576 (1993), Ponzetto et al., Mol. Cell. Biol. 13: 4600-4608 (1993)). Purified GST-SH2 domains or intact proteins were desalted in BIAcore running buffer (20 mM Hepes, pH 7.4, 150 mM NaCl, 3.4 mM EDTA, 0.005% Tween 20 and 4 mM DTT) and injected over avidin-immobilized, biotinylated phosphopeptides. The amount of phosphopeptides immobilized was normalized by measuring the binding of anti-phosphotyrosine antibodies. Association was measured over a range of protein concentrations and dissociation of bound material was allowed to occur either in buffer flow or upon injection of 20 μM competing, non-biotinylated phosphopetide. Peptide and protein concentrations were calculated by amino acid analysis on an Applied Biosystem amino acid analyzer.
The direct interaction between the SH2 domain of Shc and phosphotyrosine Y^1349 or Y^1356 was confirmed by real-time Biosensor analysis (Panayotou et al., ibid; Felder et al., Mol. Cell. Biol. 13: 1449-1455 (1993)).
The Shc sequence Y^317 VNV (SEQ. ID NO: 3) is identical to one of the two Shc binding sites present in the SF/HGF receptor (FIG. 8). […] The biosensor was used to compare binding of the Shc SH2 domain to the phosphopeptide DDPSY^317 VNVQ (SEQ. ID NO: 27), present on the Shc molecule, and to the phosphopeptide VNATY^1356 VNVK (SEQ. ID NO: 28), present on the SF/HGF receptor. […] Thus Shc-Shc association is not favoured in vivo, and the Shc phosphotyrosine residue Y^317 is available to bind other molecules, rather than to mediate the formation of concatamers.

T1 sequence (P23727 whole entry): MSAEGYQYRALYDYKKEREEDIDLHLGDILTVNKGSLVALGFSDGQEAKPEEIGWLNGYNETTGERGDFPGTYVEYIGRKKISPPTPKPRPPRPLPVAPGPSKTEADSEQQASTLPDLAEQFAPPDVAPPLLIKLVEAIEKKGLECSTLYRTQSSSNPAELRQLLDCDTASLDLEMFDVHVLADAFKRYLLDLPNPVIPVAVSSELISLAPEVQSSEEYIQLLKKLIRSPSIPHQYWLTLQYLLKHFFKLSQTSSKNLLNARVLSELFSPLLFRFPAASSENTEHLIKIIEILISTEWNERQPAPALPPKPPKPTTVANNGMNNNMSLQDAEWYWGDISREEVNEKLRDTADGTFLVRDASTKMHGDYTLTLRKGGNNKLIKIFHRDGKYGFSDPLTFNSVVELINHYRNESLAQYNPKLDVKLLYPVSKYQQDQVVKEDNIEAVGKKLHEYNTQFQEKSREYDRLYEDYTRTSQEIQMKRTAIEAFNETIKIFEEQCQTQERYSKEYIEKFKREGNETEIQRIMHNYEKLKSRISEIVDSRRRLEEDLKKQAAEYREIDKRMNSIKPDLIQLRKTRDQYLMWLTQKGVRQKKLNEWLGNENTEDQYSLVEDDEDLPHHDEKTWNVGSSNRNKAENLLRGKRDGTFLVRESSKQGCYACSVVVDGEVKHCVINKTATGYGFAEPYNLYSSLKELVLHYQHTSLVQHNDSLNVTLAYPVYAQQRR

Compound | Inhibition of binding of p85 to HGF/SF receptor [1] | Affinity constant, ratio between dissociation rate (Kdiss) and association rate constants (Kass) (GST-SH2 domain of Shc) | Binding of Shc SH2 domain to immobilised phosphopeptide (GST-SH2 domain of Shc) | Binding of Shc SH2 domain to immobilised phosphopeptide (GST-SH2 domain of Shc; listed as Y1356P)
CC(C)C[C@H](NC(=O)[C@@H]1CCCN1C(=O)[C@H](CC(=O)O)NC(=O)[C@@H]1CCCN1C(=O)[C@H](CS)NC(=O)[C@@H](N)Cc1ccc(OP(=O)(O)O)cc1)C(=O)N[C@@H](Cc1ccc(O)cc1)C(=O)N[C@@H](CCC(=O)O)C(=O)O [H-Tyr*-Cys-Pro-Asp-Pro-Leu-Tyr-Glu-OH] (HELM PEPTIDE1{[N[C@@H](Cc1ccc(OP(=O)(O)O)cc1)C(=O)[*:2]].C.P.D.P.L.Y.E}$$$$V2.0) | only partially effective | – | – | –
H-Ile-Gly-Glu-His-Tyr*-Val-His-Val-Asn-OH (H-IGEHYVHVN-OH; not fully specified (residue 5); also: Tyr5 (Y*) may be phosphorylated or unphosphorylated, not settled) [IGEHY^1349* VHVN] | – | too high to be exactly determined | – | –
H-Val-Asn-Ala-Thr-Tyr*-Val-Asn-Val-Lys-OH (H-VNATYVNVK-OH; not fully specified (residue 5); also: Tyr5 (Y*) may be phosphorylated or unphosphorylated, not settled) [VNATY^1356* VNVK] | – | too high to be exactly determined | specifically bound | binds to the docking site of the SF/HGF receptor
